From publication PMC12603107 (2025)

Biological target: T1, CI-M6P/IGF2R domains 11-13 (Homo sapiens, UniProt P11717)
T1 chain: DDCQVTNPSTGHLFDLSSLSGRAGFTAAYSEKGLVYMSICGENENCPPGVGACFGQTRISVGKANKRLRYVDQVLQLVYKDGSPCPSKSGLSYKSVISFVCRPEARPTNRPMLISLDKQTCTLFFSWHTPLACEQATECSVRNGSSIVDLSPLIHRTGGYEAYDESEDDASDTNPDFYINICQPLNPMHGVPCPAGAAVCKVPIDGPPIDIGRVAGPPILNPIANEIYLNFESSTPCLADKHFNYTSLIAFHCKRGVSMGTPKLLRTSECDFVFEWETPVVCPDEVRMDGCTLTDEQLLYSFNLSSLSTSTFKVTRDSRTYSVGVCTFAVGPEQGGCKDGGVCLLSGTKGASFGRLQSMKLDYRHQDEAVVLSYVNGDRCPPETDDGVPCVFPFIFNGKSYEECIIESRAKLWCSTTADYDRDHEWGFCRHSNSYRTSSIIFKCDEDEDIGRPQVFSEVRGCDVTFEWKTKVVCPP
Assay: competitive ELISA (biotinylated IGF2)

IC50: ~5 nM
B1: IGF2 peptide (des1-6) 7-67 (protein)
chain: KSMLVLLTFLAFASCCIAAYRPSETLCGGELVDTLQFVCGDRGFYFSRPASRVSRRSRGIV
